Assay results taken from US20250197513A1 (University of Texas, published 2025).

Tests used:
[1] = target: T1, cell surface human OSMR protein (as used in the ELISA for EC50) (human, UniProt Q99650 28-739, limits assumed); experiment: ELISA
T1 sequence (looked up): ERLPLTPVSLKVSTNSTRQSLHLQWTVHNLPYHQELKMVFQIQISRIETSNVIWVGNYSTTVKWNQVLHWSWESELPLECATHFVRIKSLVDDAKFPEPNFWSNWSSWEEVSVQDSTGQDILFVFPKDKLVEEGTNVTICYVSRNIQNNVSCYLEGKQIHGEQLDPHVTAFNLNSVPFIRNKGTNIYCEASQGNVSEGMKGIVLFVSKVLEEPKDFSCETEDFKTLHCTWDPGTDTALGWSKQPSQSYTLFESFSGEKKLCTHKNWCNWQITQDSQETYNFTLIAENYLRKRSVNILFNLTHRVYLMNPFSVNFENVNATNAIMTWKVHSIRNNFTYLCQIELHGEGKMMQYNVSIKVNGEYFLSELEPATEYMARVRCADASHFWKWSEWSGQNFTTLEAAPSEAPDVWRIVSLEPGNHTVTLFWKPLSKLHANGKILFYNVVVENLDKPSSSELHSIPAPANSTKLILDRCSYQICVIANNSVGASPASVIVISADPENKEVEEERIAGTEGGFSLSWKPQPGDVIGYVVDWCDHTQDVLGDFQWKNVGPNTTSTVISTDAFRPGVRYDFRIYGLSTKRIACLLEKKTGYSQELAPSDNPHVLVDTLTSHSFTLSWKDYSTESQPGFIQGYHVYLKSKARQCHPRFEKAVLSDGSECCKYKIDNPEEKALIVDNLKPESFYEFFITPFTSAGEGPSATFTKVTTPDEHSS

[2] = target: T2, recombinant OSMR protein (Sino Biologicals, 11226-H08H), extracellular domain of OSMR (UniProt Q99650 28-740); experiment: screening of full-length IgG1 clones on recombinant OSMR extracellular domain
T2 construct: extracellular domain; also called OSMR antigen
T2 sequence (looked up): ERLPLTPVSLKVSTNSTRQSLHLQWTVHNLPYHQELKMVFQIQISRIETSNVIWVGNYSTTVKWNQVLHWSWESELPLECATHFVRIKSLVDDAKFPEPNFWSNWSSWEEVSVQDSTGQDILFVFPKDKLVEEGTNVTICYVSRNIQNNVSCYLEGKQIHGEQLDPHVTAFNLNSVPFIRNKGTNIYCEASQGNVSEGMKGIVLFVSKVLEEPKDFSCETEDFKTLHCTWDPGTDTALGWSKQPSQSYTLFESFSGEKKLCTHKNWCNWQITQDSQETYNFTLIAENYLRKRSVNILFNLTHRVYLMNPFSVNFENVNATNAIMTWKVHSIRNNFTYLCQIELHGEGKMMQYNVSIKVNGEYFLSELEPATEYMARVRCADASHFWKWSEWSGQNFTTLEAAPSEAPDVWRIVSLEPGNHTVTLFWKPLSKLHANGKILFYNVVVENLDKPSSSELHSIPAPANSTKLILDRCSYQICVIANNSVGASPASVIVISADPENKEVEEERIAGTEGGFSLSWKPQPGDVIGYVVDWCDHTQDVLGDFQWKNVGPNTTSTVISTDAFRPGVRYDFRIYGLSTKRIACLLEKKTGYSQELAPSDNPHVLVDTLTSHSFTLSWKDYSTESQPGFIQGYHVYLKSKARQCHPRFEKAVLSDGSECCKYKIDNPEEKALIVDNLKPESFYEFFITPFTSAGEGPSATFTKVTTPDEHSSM

binding result [1]: no binding | binding result [2]: binds
B1: B18 monoclonal antibody (antibody, V domains shown)
VH: not shown
VL: DVVMTQSPLSLPVTPGEPASISCRSSQSLLHSNGYNYLDWYMQKPGQSPQVLIYLGSNRASGVPDRFSGSGSGTDFTLKISRVEAEDVGVYYCMQALQTPHTFGQGTTVDIK
notes: also called B18 mAb; B18 antibody clones
